Test results published in publication PMC10949315, “RrA, an enzyme from Rhodospirillum rubrum, is a prototype of a new family of short‐chain L‐asparaginases” (Protein Science : A Publication of the Protein Society, 2024).

Experiments:
RrA [1] = biological target: T1, RrA (Rhodospirillum rubrum, UniProt Q2RMX1); experiment: nanoDSF back-reflection, aggregation onset; type: binding; details: 20 mM ligand, 0.1 M Na-citrate pH 5.0, 0.2 M NaCl; 42.3 °C without ligand
T1 construct: gene Rru_A3730; full length, 172 residues, Lys149 natural variant (Glu149 in the first report); synthetic gene in pET15b, N-terminal His6 tag removed by TEV protease, expressed in E. coli BL21(DE3) RIPL; homotetramer, active site completed by Tyr21 and Asn26 of another protomer
T1 sequence (Q2RMX1 1-172): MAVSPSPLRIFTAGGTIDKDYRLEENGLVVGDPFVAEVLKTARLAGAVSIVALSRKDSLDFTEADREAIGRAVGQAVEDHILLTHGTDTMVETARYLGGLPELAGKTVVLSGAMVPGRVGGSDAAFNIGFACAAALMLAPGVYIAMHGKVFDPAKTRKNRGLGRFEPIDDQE

[2] = biological target: RrA(K19Q) (Rhodospirillum rubrum); experiment: dynamic light scattering; protein at 0.22-1.1 mM in the standard buffer (50 mM HEPES, 200 mM NaCl, pH 7), 20°C, DynaPro Nanostar; proteins modelled as globular; oligomer in solution
[3] = biological target: RrA(K19Q) (Rhodospirillum rubrum); experiment: crystal structure; hanging drops, 293 K, protein 19-21 mg/mL in the standard buffer, with or without L-Asp; tetramer as a dimer of tight dimers, in the asymmetric unit or made by crystal symmetry
RrA [4] = biological target: T2, RrA (Rhodospirillum rubrum, UniProt Q2RMX1, Y21F); experiment: X-ray crystal structure, […] Å; type: binding; details: active site, three of four protomers; also 8up3 (co-purified L-Asp in some protomers)
T2 construct: gene Rru_A3730; full length, 172 residues, Lys149 natural variant (Glu149 in the first report); synthetic gene in pET15b, N-terminal His6 tag removed by TEV protease, expressed in E. coli BL21(DE3) RIPL; homotetramer, active site completed by Tyr21 and Asn26 of another protomer
T2 sequence (Q2RMX1 entry or part of it Y21F): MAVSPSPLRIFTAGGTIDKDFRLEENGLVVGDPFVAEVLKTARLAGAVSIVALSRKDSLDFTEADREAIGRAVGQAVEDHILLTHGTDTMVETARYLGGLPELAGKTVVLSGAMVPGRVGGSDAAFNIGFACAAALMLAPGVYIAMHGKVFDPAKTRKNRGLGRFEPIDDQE

[5] = biological target: RrA(Y21A) (Rhodospirillum rubrum); experiment: dynamic light scattering; protein at 0.22-1.1 mM in the standard buffer (50 mM HEPES, 200 mM NaCl, pH 7), 20°C, DynaPro Nanostar; proteins modelled as globular; oligomer in solution
[6] = biological target: RrA(Y21A) (Rhodospirillum rubrum); experiment: crystal structure; hanging drops, 293 K, protein 19-21 mg/mL in the standard buffer, with or without L-Asp; tetramer as a dimer of tight dimers, in the asymmetric unit or made by crystal symmetry
[7] = biological target: RrA(Y21F) (Rhodospirillum rubrum); experiment: dynamic light scattering; protein at 0.22-1.1 mM in the standard buffer (50 mM HEPES, 200 mM NaCl, pH 7), 20°C, DynaPro Nanostar; proteins modelled as globular; oligomer in solution
[8] = biological target: RrA(Y21F) (Rhodospirillum rubrum); experiment: crystal structure; hanging drops, 293 K, protein 19-21 mg/mL in the standard buffer, with or without L-Asp; tetramer as a dimer of tight dimers, in the asymmetric unit or made by crystal symmetry
[9] = biological target: RrA(K19A) (Rhodospirillum rubrum); experiment: dynamic light scattering; protein at 0.22-1.1 mM in the standard buffer (50 mM HEPES, 200 mM NaCl, pH 7), 20°C, DynaPro Nanostar; proteins modelled as globular; oligomer in solution
[10] = biological target: RrA(K19A) (Rhodospirillum rubrum); experiment: crystal structure; hanging drops, 293 K, protein 19-21 mg/mL in the standard buffer, with or without L-Asp; tetramer as a dimer of tight dimers, in the asymmetric unit or made by crystal symmetry
[11] = biological target: RrA(K158M) (Rhodospirillum rubrum); experiment: dynamic light scattering; protein at 0.22-1.1 mM in the standard buffer (50 mM HEPES, 200 mM NaCl, pH 7), 20°C, DynaPro Nanostar; proteins modelled as globular; oligomer in solution
[12] = biological target: RrA(K158M) (Rhodospirillum rubrum); experiment: crystal structure; hanging drops, 293 K, protein 19-21 mg/mL in the standard buffer, with or without L-Asp; tetramer as a dimer of tight dimers, in the asymmetric unit or made by crystal symmetry
[13] = biological target: RrA(K19E) (Rhodospirillum rubrum); experiment: dynamic light scattering; protein at 0.22-1.1 mM in the standard buffer (50 mM HEPES, 200 mM NaCl, pH 7), 20°C, DynaPro Nanostar; proteins modelled as globular; oligomer in solution
[14] = biological target: RrA(K19E) (Rhodospirillum rubrum); experiment: crystal structure; hanging drops, 293 K, protein 19-21 mg/mL in the standard buffer, with or without L-Asp; tetramer as a dimer of tight dimers, in the asymmetric unit or made by crystal symmetry
[15] = substrate: NC(=O)C[C@H](N)C(=O)O; experiment: ammonia release by Nessler's reagent, A480; Lineweaver-Burk; type: biochemical, Rhodospirillum rubrum; details: PBS pH 7.4, 20 °C, substrate inhibition above 5 mM
[16] = biological target: the molecule itself; experiment: mass photometry; RrA(wt) at 25 nM and 65 nM in the standard buffer (50 mM HEPES, 200 mM NaCl, pH 7), 20°C, Refeyn TwoMP; minor lower-mass peak only in the 25 nM sample
[17] = biological target: the molecule itself; experiment: dynamic light scattering; protein at 0.22-1.1 mM in the standard buffer (50 mM HEPES, 200 mM NaCl, pH 7), 20°C, DynaPro Nanostar; proteins modelled as globular; oligomer in solution

Question: N[C@@H](CCC(=O)O)C(=O)O [L‐Glu] was tested. Which T agg (RrA [1]) did it give?
Answer: 61.5 °C

Question: What does the source list for RrA(K19Q) (enzyme)?
Answer: stoichiometry N [2]: 4; stoichiometry N [3]: 4

Question: How did the “X-ray crystal structure, 1.90 Å” value (RrA [4]) turn out when N[C@@H](CC(=O)O)C(=O)O [L‐Asp] was run?
Answer: the ligand was present in three out of four protomers

Question: And the T agg (RrA [1])?
Answer: 61.3 °C

Question: Which results are given for RrA(Y21A) (enzyme)?
Answer: stoichiometry N [5]: 4; stoichiometry N [6]: 4

Question: Which stoichiometry N [7] does the source give for RrA(Y21F) (enzyme) here?
Answer: 4

Question: What about the stoichiometry N [8] of the same molecule?
Answer: 4

Question: With RrA(K19A) (enzyme) as the molecule, how does the stoichiometry N [9] read?
Answer: 4

Question: What about the stoichiometry N [10] of the same molecule?
Answer: 4

Question: Which stoichiometry N [11] does the source give for RrA(K158M) (enzyme) here?
Answer: 4

Question: What about the stoichiometry N [12] of the same molecule?
Answer: 4

Question: Which results are given for RrA(K19E) (enzyme)?
Answer: stoichiometry N [13]: 4; stoichiometry N [14]: 4

B1: RrA(wt), short-chain L-asparaginase from Rhodospirillum rubrum (enzyme, UniProt Q2RMX1 1-172, looked up)
chain: MAVSPSPLRIFTAGGTIDKDYRLEENGLVVGDPFVAEVLKTARLAGAVSIVALSRKDSLDFTEADREAIGRAVGQAVEDHILLTHGTDTMVETARYLGGLPELAGKTVVLSGAMVPGRVGGSDAAFNIGFACAAALMLAPGVYIAMHGKVFDPAKTRKNRGLGRFEPIDDQE
notes: L-asparaginase RrA of Rhodospirillum rubrum, synthetic gene of GenBank QXG80441.1; protomer of 172 residues (Met1 traced in the structure); the GenBank entry and the PDB entries hold; source: E. coli BL21(DE3) RIPL, pET15b, purified (HisTrap, TEV cleavage, second HisTrap flow-through, Superdex 75); not shown: His6, N-terminal, cleaved
Question: How did the Km [15] turn out when B1 was run?
Answer: 3.6 ± 0.3 mM

Question: And the kcat [15]?
Answer: 58.2 ± 3.0 s⁻¹

Question: And the “stoichiometry N” value [16]?
Answer: 2

Question: And the “stoichiometry N” value [17]?
Answer: 4
